Measurements from the supplement of paper PMC5998384.

Columns and labels:
HeLa Kyoto [1] = assay: solubility in G1/S (NP-40 vs SDS abundance) (log2 ratio); higher = more soluble; details: cell cycle stage: G1/S
HeLa Kyoto [2] = assay: melting temperature (median over replicates), in situ; higher = more thermally stable
HeLa Kyoto [3] = assay: solubility change mitosis vs G1/S (difference of NP-40 vs SDS log2 ratios) (log2 ratio difference); higher = more soluble in mitosis
HeLa Kyoto [4] = assay: thermal stability score vs G1/S (z-score of summed log2 fold changes over temperatures); higher = more thermally stable than in G1/S
[5] = cell cycle stage: early G1 (4.5 h after nocodazole release)
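For melting temperature (median over replicates), in situ in this document: HeLa Kyoto cells synchronized by double thymidine or nocodazole block, proteins quantified by TMT10plex mass spectrometry, three independent biological replicates.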
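For solubility change mitosis vs G1/S (difference of NP-40 vs SDS log2 ratios) in this document: synchronized HeLa Kyoto cells (double thymidine block for G1/S, nocodazole release for mitosis), protein amounts in NP-40 versus SDS lysates quantified by mass spectrometry, three biological replicates.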
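For solubility in G1/S (NP-40 vs SDS abundance) in this document: HeLa Kyoto cells arrested at G1/S by double thymidine block, proteins quantified by TMT10plex mass spectrometry in mild NP-40 versus SDS extracts, three biological replicates.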
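For thermal stability score vs G1/S (z-score of summed log2 fold changes over temperatures) in this document: synchronized HeLa Kyoto cells, proteins quantified by TMT10plex mass spectrometry, three biological replicates, mitosis taken 0.5 h after nocodazole release, G1/S directly after double thymidine block.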

| Sequence | solubility in G1/S (log2) (HeLa Kyoto [1]) | melting temperature (HeLa Kyoto [2]; cell cycle stage: G1/S) | melting temperature (HeLa Kyoto [2]; cell cycle stage: mitosis) | solubility change mitosis (log2) (HeLa Kyoto [3]) | thermal stability score (HeLa Kyoto [4]; [5]) | thermal stability score (HeLa Kyoto [4]; cell cycle stage: mitosis) |
| --- | --- | --- | --- | --- | --- | --- |
| MLRTSVLRLLGRTGASRLSLLEDFGPRYYSSGSLSAGDDACDVRAYFTTPIFYVNAAPHIGHLYSALLADALCRHRRLRGPSTAATRFSTGTDEHGLKIQQAAATAGLAPTELCDRVSEQFQQLFQEAGISCTDFIRTTEARHRVAVQHFWGVLKSRGLLYKGVYEGWYCASDECFLPEAKVTQQPGPSGDSFPVSLESGHPVSWTKEENYIFRLSQFRKPLQRWLRGNPQAITPEPFHHVVLQWLDEELPDLSVSRRSSHLHWGIPVPGDDSQTIYVWLDALVNYLTVIGYPNAEFKSWWPATSHIIGKDILKFHAIYWPAFLLGAGMSPPQRICVHSHWTVCGQKMSKSLGNVVDPRTCLNRYTVDGFRYFLLRQGVPNWDCDYYDEKVVKLLNSELADALGGLLNRCTAKRINPSETYPAFCTTCFPSEPGLVGPSVRAQAEDYALVSAVATLPKQVADHYDNFRIYKALEAVSSCVRQTNGFVQRHAPWKLNWESPVDAPWLGTVLHVALECLRVFGTLLQPVTPSLADKLLSRLGVSASERSLGELYFLPRFYGHPCPFEGRRLGPETGLLFPRLDQSRTWLVKAHRT [MARS2] | 0.0996 | 55.2 °C | 55.5 °C | -0.083 | -3.14 | -3.9 |
| MLRTTRGPGLGPPLLQAALGLGRAGWHWPAGRAASGGRGRAWLQPTGRETGVQVYNSLTGRKEPLIVAHAEAASWYSCGPTVYDHAHLGHACSYVRFDIIRRILTKVFGCSIVMVMGITDVDDKIIKRANEMNISPASLASLYEEDFKQDMAALKVLPPTVYLRVTENIPQIISFIEGIIARGNAYSTAKGNVYFDLKSRGDKYGKLVGVVPGPVGEPADSDKRHASDFALWKAAKPQEVFWASPWGPGRPGWHIECSAIASMVFGSQLDIHSGGIDLAFPHHENEIAQCEVFHQCEQWGNYFLHSGHLHAKGKEEKMSKSLKNYITIKDFLKTFSPDVFRFFCLRSSYRSAIDYSDSAMLQAQQLLLGLGSFLEDARAYMKGQLACGSVREAMLWERLSSTKRAVKAALADDFDTPRVVDAILGLAHHGNGQLRASLKEPEGPRSPAVFGAIISYFEQFFETVGISLANQQYVSGDGSEATLHGVVDELVRFRQKVRQFALAMPEATGDARRQQLLERQPLLEACDTLRRGLTAHGINIKDRSSTTSTWELLDQRTKDQKSAG [CARS2] | 0.0252 | 55.4 °C | 54.1 °C | -0.0653 | 0.291 | -0.0596 |
| MLSALARPASAALRRSFSTSAQNNAKVAVLGASGGIGQPLSLLLKNSPLVSRLTLYDIAHTPGVAADLSHIETKAAVKGYLGPEQLPDCLKGCDVVVIPAGVPRKPGMTRDDLFNTNATIVATLTAACAQHCPEAMICVIANPVNSTIPITAEVFKKHGVYNPNKIFGVTTLDIVRANTFVAELKGLDPARVNVPVIGGHAGKTIIPLISQCTPKVDFPQDQLTALTGRIQEAGTEVVKAKAGAGSATLSMAYAGARFVFSLVDAMNGKEGVVECSFVKSQETECTYFSTPLLLGKKGIEKNLGIGKVSSFEEKMISDAIPELKASIKKGEDFVKTLK [MDH2] | 0.383 | 56.9 °C | 57.2 °C | -0.0422 | -0.843 | -1.62 |
| MLSEVLLVSAPGKVILHGEHAVVHGKVALAVSLNLRTFLRLQPHSNGKVDLSLPNIGIKRAWDVARLQSLDTSFLEQGDVTTPTSEQVEKLKEVAGLPDDCAVTERLAVLAFLYLYLSICRKQRALPSLDIVVWSELPPGAGLGSSAAYSVCLAAALLTVCEEIPNPLKDGDCVNRWTKEDLELINKWAFQGERMIHGNPSGVDNAVSTWGGALRYHQGKISSLKRSPALQILLTNTKVPRNTRALVAGVRNRLLKFPEIVAPLLTSIDAISLECERVLGEMGEAPAPEQYLVLEELIDMNQHHLNALGVGHASLDQLCQVTRARGLHSKLTGAGGGGCGITLLKPGLEQPEVEATKQALTSCGFDCLETSIGAPGVSIHSATSLDSRVQQALDGL [MVK] | 0.173 | 53.8 °C | 54.3 °C | 0.006 | -0.0917 | 0.34 |
| MLSLDFLDDVRRMNKRQLYYQVLNFGMIVSSALMIWKGLMVITGSESPIVVVLSGSMEPAFHRGDLLFLTNRVEDPIRVGEIVVFRIEGREIPIVHRVLKIHEKQNGHIKFLTKGDNNAVDDRGLYKQGQHWLEKKDVVGRARGFVPYIGIVTILMNDYPKFKYAVLFLLGLFVLVHRE [SEC11A] | -0.21 | 53.2 °C | 52.3 °C | -0.117 | 9.24 | 7.47 |
